Results from article PMC5725915.

Target: human factor Xa (human)
Test: prothrombinase activity titration

Chain of human factor Xa (human) (P00742 whole entry): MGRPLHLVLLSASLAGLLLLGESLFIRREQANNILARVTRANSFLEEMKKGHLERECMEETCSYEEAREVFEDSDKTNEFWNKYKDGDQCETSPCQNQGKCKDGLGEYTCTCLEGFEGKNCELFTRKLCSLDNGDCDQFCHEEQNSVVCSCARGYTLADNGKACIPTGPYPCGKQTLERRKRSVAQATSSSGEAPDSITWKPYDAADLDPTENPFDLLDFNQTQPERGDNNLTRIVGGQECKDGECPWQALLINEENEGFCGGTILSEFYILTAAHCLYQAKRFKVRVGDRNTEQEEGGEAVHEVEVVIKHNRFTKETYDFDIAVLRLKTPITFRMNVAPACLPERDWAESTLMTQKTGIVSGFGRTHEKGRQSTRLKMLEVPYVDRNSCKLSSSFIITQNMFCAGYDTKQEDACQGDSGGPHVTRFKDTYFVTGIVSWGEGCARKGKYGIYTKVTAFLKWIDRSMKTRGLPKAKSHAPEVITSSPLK

Kd: 0.48 nM
Substance: wild-type recombinant human fV activated with thrombin (rhfVa^WT) (from UniProt P12259 29-737; P12259 1574-2224) (complex)
